Experimental data: the supplement of paper PMC11246515
± gives the standard deviation of the averaged measurements.

Experiment: total protein half-life in vivo (active degradation + dilution); higher = more stable protein
[1] = E. coli NCM3722 delta-clpP delta-lon delta-hslV, growth: N-lim chemostat, doubling time 6 h
[2] = E. coli NCM3722 delta-clpP, growth: N-lim chemostat, doubling time 6 h
[3] = E. coli NCM3722 delta-hslV, growth: N-lim chemostat, doubling time 6 h
[4] = E. coli NCM3722 delta-lon, growth: N-lim chemostat, doubling time 6 h
[5] = E. coli NCM3722 delta-smpB, growth: N-lim chemostat, doubling time 6 h
[6] = wild type E. coli NCM3722, growth: C-lim chemostat, doubling time 3 h
[7] = wild type E. coli NCM3722, growth: C-lim chemostat, doubling time 6 h
[8] = wild type E. coli NCM3722, growth: C-lim chemostat, doubling time 12 h
[9] = wild type E. coli NCM3722, growth: N-lim chemostat, doubling time 6 h
[10] = wild type E. coli NCM3722, growth: N-lim chemostat, doubling time 12 h
[11] = wild type E. coli NCM3722, growth: P-lim chemostat, doubling time 6 h
[12] = wild type E. coli NCM3722, growth: P-lim chemostat, doubling time 12 h

Sequence | total protein half-life in vivo [1] [h] | total protein half-life in vivo [2] [h] | total protein half-life in vivo [3] [h] | total protein half-life in vivo [4] [h] | total protein half-life in vivo [5] [h] | total protein half-life in vivo [6] [h] | total protein half-life in vivo [7] [h] | total protein half-life in vivo [8] [h] | total protein half-life in vivo [9] [h] | total protein half-life in vivo [10] [h] | total protein half-life in vivo [11] [h] | total protein half-life in vivo [12] [h]
MKRSLLFSAVLCAASLTSVHAAQPITEPEFASDIVDRYADHIFYGSGATGMALVVIDGNQRVFRSYGETRPGNNVRPQLDSVVRIASLTKLMTSEMLVKLLDQGTVKLNDPLSKYAPPGARVPTYNGTPITLVNLATHTSALPREQPGGAAHRPVFVWPTREQRWKYLSTAKLKAAPGSQAAYSNLAFDLLADALANASGKPYTQLFEEQITRPLGMKDTTYTPSPDQCRRLMVAERGASPCNNTLAAIGSGGVYSTPGDMMRWMQQYLSSDFYQRSNQADRMQTLIYQRAQFTKVIGMDVPGKADALGLGWVYMAPKEGRPGIIQKTGGGGGFITYMAMIPQKNIGAFVVVTRSPLTRFKNMSDGINDLVTELSGNKPLVIPAS [P0AD70] | 3.75 ± 0.98 | 2.49 ± 0.33 | 3.37 ± 0.26 | 3.68 ± 0.084 | 3.17 ± 0.11 | 1.96 ± 0.34 | 3.73 ± 0.71 | 5.69 ± 1.3 | 3.96 ± 1 | 5.33 ± 0.35 | 3.62 ± 0.42 | 6.14 ± 1.1
MKRVSQMTALAMALGLACASSWAAELAKPLTLDQLQQQNGKAIDTRPSAFYNGWPQTLNGPSGHELAALNLSASWLDKMSTEQLNAWIKQHNLKTDAPVALYGNDKDVDAVKTRLQKAGLTHISILSDALSEPSRLQKLPHFEQLVYPQWLHDLQQGKEVTAKPAGDWKVIEAAWGAPKLYLISHIPGADYIDTNEVESEPLWNKVSDEQLKAMLAKHGIRHDTTVILYGRDVYAAARVAQIMLYAGVKDVRLLDGGWQTWSDAGLPVERGTPPKVKAEPDFGVKIPAQPQLMLDMEQARGLLHRQDASLVSIRSWPEFIGTTSGYSYIKPKGEIAGARWGHAGSDSTHMEDFHNPDGTMRSADDITAMWKAWNIKPEQQVSFYCGTGWRASETFMYARAMGWKNVSVYDGGWYEWSSDPKNPVATGERGPDSSK | 5.98 ± 1.8 | 6.55 ± 1.7 | 6.79 ± 0.81 | 6.48 ± 0.13 | 6.47 ± 0.44 | 3.2 ± 0.56 | 6.183 ± 0.011 | 12.3 ± 0.77 | 6.69 ± 1.1 | 13 ± 1.9 | 6.19 ± 0.064 | 14.4 ± 0.58
MKSALKKSVVSTSISLILASGMAAFAAHAADDVKLKATKTNVAFSDFTPTEYSTKGKPNIIVLTMDDLGYGQLPFDKGSFDPKTMENREVVDTYKIGIDKAIEAAQKSTPTLLSLMDEGVRFTNGYVAHGVSGPSRAAIMTGRAPARFGVYSNTDAQDGIPLTETFLPELFQNHGYYTAAVGKWHLSKISNVPVPEDKQTRDYHDNFTTFSAEEWQPQNRGFDYFMGFHAAGTAYYNSPSLFKNRERVPAKGYISDQLTDEAIGVVDRAKTLDQPFMLYLAYNAPHLPNDNPAPDQYQKQFNTGSQTADNYYASVYSVDQGVKRILEQLKKNGQYDNTIILFTSDNGAVIDGPLPLNGAQKGYKSQTYPGGTHTPMFMWWKGKLQPGNYDKLISAMDFYPTALDAADISIPKDLKLDGVSLLPWLQDKKQGEPHKNLTWITSYSHWFDEENIPFWDNYHKFVRHQSDDYPHNPNTEDLSQFSYTVRNNDYSLVYTVENNQLGLYKLTDLQQKDNLAAANPQVVKEMQGVVREFIDSSQPPLSEVNQEKFNNIKKALSEAK | – | – | – | – | – | 2.86 ± 0.07 | 5.43 ± 0.41 | – | 7.26 | 6.32 | 5 ± 0.63 | –
MKSATSAQRPYQEVGAMIRDLIIKTPYNPGERLPPEREIAEMLDVTRTVVREALIMLEIKGLVEVRRGAGIYVLDNSGSQNTDSPDANVCNDAGPFELLQARQLLESNIAEFAALQATREDIVKMRQALQLEERELASSAPGSSESGDMQFHLAIAEATHNSMLVELFRQSWQWRENNPMWIQLHSHLDDSLYRKEWLGDHKQILAALIKKDARAAKLAMWQHLENVKQRLLEFSNVDDIYFDGYLFDSWPLDKVDA | 4.94 ± 0.91 | 4.94 ± 0.29 | 2.75 ± 0.15 | 3.04 ± 0.38 | 2.82 ± 0.23 | 2.21 ± 0.16 | 3.86 ± 0.058 | 5.88 ± 0.11 | 2.83 | 3.494 ± 0.022 | 3.22 ± 0.098 | 5.72 ± 0.14
MKSEVLSVKEKIGYGMGDAASHIIFDNVMLYMMFFYTDIFGIPAGFVGTMFLVARALDAISDPCMGLLADRTRSRWGKFRPWVLFGALPFGIVCVLAYSTPDLSMNGKMIYAAITYTLLTLLYTVVNIPYCALGGVITNDPTQRISLQSWRFVLATAGGMLSTVLMMPLVNLIGGDNKPLGFQGGIAVLSVVAFMMLAFCFFTTKERVEAPPTTTSMREDLRDIWQNDQWRIVGLLTIFNILAVCVRGGAMMYYVTWILGTPEVFVAFLTTYCVGNLIGSALAKPLTDWKCKVTIFWWTNALLAVISLAMFFVPMQASITMFVFIFVIGVLHQLVTPIQWVMMSDTVDYGEWCNGKRLTGISFAGTLFVLKLGLAFGGALIGWMLAYGGYDAAEKAQNSATISIIIALFTIVPAICYLLSAIIAKRYYSLTTHNLKTVMEQLAQGKRRCQQQFTSQEVQN | 3.79 ± 0.88 | 2.71 ± 0.12 | 2.34 ± 0.037 | 2.68 | – | 2.83 ± 0.12 | 4.26 ± 0.11 | 8.19 ± 1.7 | 2.823 ± 0.011 | 4.72 | 5.34 ± 0.062 | 9.79 ± 1.1
MKSGRFIGVMSGTSLDGVDVVLATIDEHRVAQLASLSWPIPVSLKQAVLDICQGQQLTLSQFGQLDTQLGQLFADAVNALLKEQNLQARDIVAIGCHGQTVWHEPTGVAPHTLQIGDNNQIVARTGITVVGDFRRRDIALGGQGAPLVPAFHHALLAHPTERRMVLNIGGIANLSLLIPGQPVGGYDTGPGNMLMDAWIWRQAGKPYDKDAEWARAGKVILPLLQNMLSDPYFSQPAPKSTGREYFNYGWLERHLRHFPGVDPRDVQATLAELTAVTISEQVLLSGGCERLMVCGGGSRNPLLMARLAALLPGTEVTTTDAVGISGDDMEALAFAWLAWRTLAGLPGNLPSVTGASQETVLGAIFPANP | 4.58 ± 0.37 | 4.32 ± 0.2 | 3.98 ± 0.065 | 5.78 ± 1.9 | 3.88 ± 0.11 | 3.34 ± 0.54 | 5.7 ± 0.078 | 9.74 ± 0.51 | 4.03 ± 0.26 | 7.18 ± 0.17 | 5.87 ± 0.47 | 12.9 ± 0.95
